Measurements published in patent publication US20200299408A1 (Genentech, published 2020).

Tests used:
cyCD3εγ = target: T1, cyCD3εγ (cynomolgus monkey); assay: monovalent binding affinity, method not stated on the sheet
T1 chain 1: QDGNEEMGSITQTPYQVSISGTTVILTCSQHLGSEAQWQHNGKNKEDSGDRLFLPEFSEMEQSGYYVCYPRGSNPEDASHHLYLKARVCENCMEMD
T1 chain 2: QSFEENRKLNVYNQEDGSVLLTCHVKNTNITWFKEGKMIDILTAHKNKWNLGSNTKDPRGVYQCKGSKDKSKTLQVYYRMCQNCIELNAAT

[1] = target: T2, single chain human CD3ε-26mer-CD3γ (CD3εγ) (human); assay: Biacore, human CD3εγ on chip, Fab in flow through
T2 construct: also called human CD3εγ
T2 chain: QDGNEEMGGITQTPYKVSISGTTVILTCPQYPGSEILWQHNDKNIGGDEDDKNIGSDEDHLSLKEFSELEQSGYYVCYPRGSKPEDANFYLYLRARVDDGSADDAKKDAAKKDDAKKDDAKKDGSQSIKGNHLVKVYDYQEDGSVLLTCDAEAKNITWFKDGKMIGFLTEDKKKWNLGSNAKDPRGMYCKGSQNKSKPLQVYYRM
Method: Binding affinities for the each of the CD3/CD20 TDBs were tested by Biacore or FACS analysis, as described above for the anti-CD3 antibodies. Briefly, for Biacore binding assays, human CD3εγ was immobilized on Biacore Series S CM5 sensor chip using the amine coupling kit from Biacore and CD3/CD20 TDBs or Fab variants thereof were in the flow through. For FACS binding assays, either Bjab cells (for B cell antigens) or Jurkat cells (for CD3 antigen) were incubated with various concentrations of TDB antibodies at 4° C. for 30 minutes, then cells were washed and incubated with 2nd antibody (anti-huIgG-PE; BD Bioscience) for another 15 minutes, before cells were washed again and ready for FACS analysis.

N4A = target: T3, N4A; assay: SPR (Biacore 4000): CD3εγ variant captured from the periplasmic fraction on UCHT1v9; analyte a bispecific antibody with one 38E4v1 arm and one irrelevant arm, 0.39-100 nM
T3 construct: Residue number counts from the N-terminus of CD3ε; also called CD3εγ N4A; CD3 mutant N4A
T3 single chain CD3ε-26mer linker-CD3γ: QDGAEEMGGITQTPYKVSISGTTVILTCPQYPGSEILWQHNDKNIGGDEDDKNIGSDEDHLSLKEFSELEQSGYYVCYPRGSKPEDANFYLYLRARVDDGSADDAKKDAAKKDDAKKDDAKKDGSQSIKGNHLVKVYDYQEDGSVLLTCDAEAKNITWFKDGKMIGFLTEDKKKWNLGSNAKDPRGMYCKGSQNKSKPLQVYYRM
Method: (§1) The secreted CD3εγ variants were captured from the crude periplasmic fraction using anti-CD3 antibody UCHT1v9. UCHT1v9 was immobilized on a CM5 serios S chip through amine coupling using the anti-human IgG (Fc) antibody capture kit (BR-1008-39) from GE Healthcare. SPR measurements were performed on the Biacore 4000 instrument, utilizing kinetic evaluation software. In order to measure monovalent binding affinities, anti-CD3 bispecific antibodies were used in which one arm was the anti-CD3 to be tested and the arm recognized an irrelevant antigen. The bispecific anti-CD3 antibodies were passed over the captured supernatant in a concentration series of two-fold dilutions from 0.39 to 100 nM. The resulting kinetics (FIG. 13D) were measured and calculated using Biacore 4000 BIAevaluation software (product code 28-9664-57).

Q1A = target: T4, Q1A; assay: as above
T4 construct: Residue number counts from the N-terminus of CD3ε; also called CD3εγ Q1A; CD3 mutant Q1A
T4 single chain CD3ε-26mer linker-CD3γ: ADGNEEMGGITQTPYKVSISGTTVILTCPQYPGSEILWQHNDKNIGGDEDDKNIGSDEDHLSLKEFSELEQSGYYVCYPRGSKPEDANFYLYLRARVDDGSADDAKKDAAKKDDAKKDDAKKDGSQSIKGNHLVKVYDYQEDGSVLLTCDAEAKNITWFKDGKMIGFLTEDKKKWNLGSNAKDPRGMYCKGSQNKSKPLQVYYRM
Method: as §1

G8A = target: T5, G8A; assay: as above
T5 construct: Residue number counts from the N-terminus of CD3ε; also called CD3εγ G8A
T5 single chain CD3ε-26mer linker-CD3γ: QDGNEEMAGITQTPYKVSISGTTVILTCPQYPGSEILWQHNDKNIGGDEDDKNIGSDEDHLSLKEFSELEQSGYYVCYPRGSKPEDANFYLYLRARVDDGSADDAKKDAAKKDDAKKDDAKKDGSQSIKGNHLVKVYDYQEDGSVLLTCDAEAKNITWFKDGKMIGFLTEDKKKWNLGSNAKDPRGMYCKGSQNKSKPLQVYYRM
Method: as §1

[2] = target: T2, single chain human CD3ε-26mer-CD3γ …; assay: Biacore single cycle kinetics: Fab captured by anti-human Fab, human CD3εγ injected (3-250 nM)
From the text: (§2) In addition, position 95 in HVR-H3 was also mutated to serine, threonine, or glutamate. Variants with these single point mutations were expressed as Fabs in HEK293 cells and initially screened with a single cycle kinetics method on a Biacore T100. Selected variants were also scaled up and purified for a conventional multi-cycle kinetics method. For single cycle kinetics, Biacore Series S CM5 sensor chips were immobilized with anti-human Fab antibodies (Human Fab capture kit, GE Healthcare). […] For conventional multi-cycle kinetics, human CD3εγ, cyno CD3εγ, or a 27-mer peptide were immobilized on Biacore Series S CM5 sensor chip using the amine coupling kit from Biacore. Serial 3-fold dilutions of each Fab variant were injected at a flow rate of 30 μl/min. Each sample was analyzed with a protocol of 3-minute association and 3-minute dissociation. In both methods, the Biacore chips were regenerated using 10 mM Glycine (pH 1.7). Binding response was corrected by blank subtraction and a 1:1Languir model of simultaneous fitting of kₒₙ and koff was used for kinetics analysis.

[3] = target: T2, single chain human CD3ε-26mer-CD3γ …; assay: Biacore single cycle kinetics; reference of the ratio column
From the text: as §2

[4] = target: T2, single chain human CD3ε-26mer-CD3γ …; assay: Biacore, monovalent KD of the CD3 arm; CD3 antigen not named on the sheet (reactivity hu, cyno)

B1: hu38E4.v1 Fab (Fab, V domains shown)
VH: EVQLVQSGAEVKKPGASVKVSCKASGFTFTSYYIHWVRQAPGQGLEWIGWIYPENDNTKYNEKFKDRVTITADTSTSTAYLELSSLRSEDTAVYYCARDGYSRYYFDYWGQGTLVTVSS
VL: DIVMTQSPDSLAVSLGERATINCKSSQSLLNSRTRKNYLAWYQQKPGQSPKLLIYWTSTRKSGVPDRFSGSGSGTDFTLTISSLQAEDVAVYYCKQSFILRTFGQGTKVEIK
notes: Humanized anti-CD3 Fab; Point mutants of it were expressed as Fabs in HEK293 cells
B1 was tested, and the Kd (cyCD3εγ) was 0.7 nM, the Kd [1] was 0.8 nM and the koff [1] was 0.00507 s⁻¹. For the same binder, the kon [1] was 6.06e+06 M⁻¹ s⁻¹, the Kd (N4A) was 3 nM and the Kd (Q1A) was 1000 nM. It also gave a Kd (G8A) of 8 nM, a Kd [2] of 3.4 nM and a koff [2] of 0.00108 s⁻¹. The kon [2] was 320000 M⁻¹ s⁻¹, the “ratio (fold)” value [3] was 1 fold and the Kd [4] was 1.3 nM.
